These results are taken from US20220242948A1 (CARTEXELL, published 2022).

Assay [1] has as its target T1, mouse L1CAM (mL1CAM) protein fused with the Fc domain (R&D system, Cat No.5674-NC) (mouse, UniProt P11627 20-1123, limits assumed).
T1 construct: Bought protein; also called mL1CAM-Fc; antigen mL1CAM; not shown: Fc domain
As to the kind of experiment: BLI, Octet system (Forte Bio QK384). The protocol:
(§1) The clone 3R-H8 showing the highest binding affinity among four types of anti-L1CAM scFv was subjected to a conversion procedure, thereby securing the whole IgG1 antibody. Through the Octet system (Forte Bio, Model No. QK384) using the purified whole IgG1 antibody, the antigen-antibody affinity was analyzed for the antigen hL1CAM (Sino biological, Cat No.10140-H08H) protein or mL1CAM (R&D, Cat No. 5674-NC) protein.

The target in assay [2] is T2, human L1CAM protein (hL1CAM, Sino biological, Cat No.10140-H08H) (human, UniProt P32004 20-1120).
T2 construct: Bought protein used in the Octet assay; also called antigen hL1CAM
T2 sequence (P32004 20-1120 limits assumed): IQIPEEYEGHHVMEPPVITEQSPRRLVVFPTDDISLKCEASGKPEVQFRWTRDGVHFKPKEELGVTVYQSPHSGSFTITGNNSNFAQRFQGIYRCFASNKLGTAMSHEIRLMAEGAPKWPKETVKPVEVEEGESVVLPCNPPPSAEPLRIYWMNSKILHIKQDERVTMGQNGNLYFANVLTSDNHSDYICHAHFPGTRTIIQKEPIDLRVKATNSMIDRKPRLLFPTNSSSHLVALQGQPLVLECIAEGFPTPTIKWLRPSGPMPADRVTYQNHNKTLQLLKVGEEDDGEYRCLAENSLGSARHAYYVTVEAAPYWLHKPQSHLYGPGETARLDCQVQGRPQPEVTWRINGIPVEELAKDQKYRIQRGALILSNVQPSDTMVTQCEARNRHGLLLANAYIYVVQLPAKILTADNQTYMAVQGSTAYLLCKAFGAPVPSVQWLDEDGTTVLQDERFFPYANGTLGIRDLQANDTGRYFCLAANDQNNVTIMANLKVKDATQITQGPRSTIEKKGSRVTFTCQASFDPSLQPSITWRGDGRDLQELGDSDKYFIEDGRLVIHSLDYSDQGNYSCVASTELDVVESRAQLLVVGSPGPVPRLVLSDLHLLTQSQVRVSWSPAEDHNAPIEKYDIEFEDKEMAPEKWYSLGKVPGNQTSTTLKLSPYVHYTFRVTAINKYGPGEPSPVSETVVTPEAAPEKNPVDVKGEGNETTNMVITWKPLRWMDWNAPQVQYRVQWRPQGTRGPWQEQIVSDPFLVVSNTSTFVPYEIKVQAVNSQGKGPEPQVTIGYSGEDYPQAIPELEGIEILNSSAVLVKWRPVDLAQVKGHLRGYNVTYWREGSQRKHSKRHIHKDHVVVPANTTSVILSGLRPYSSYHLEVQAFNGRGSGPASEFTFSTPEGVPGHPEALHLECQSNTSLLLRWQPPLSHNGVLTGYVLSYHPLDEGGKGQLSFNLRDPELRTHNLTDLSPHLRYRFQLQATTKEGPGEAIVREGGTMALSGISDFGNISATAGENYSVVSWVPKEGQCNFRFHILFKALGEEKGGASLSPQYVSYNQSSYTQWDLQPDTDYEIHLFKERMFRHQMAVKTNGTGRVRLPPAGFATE
The assay is described as follows: BLI, Octet system (Forte Bio QK384). As to the method:
as §1
On the technique in general: Biolayer interferometry detects binding as a change in optical thickness at a sensor tip.

In assay [3] the target is T2, human L1CAM protein (hL1CAM, Sino …). As to the kind of experiment: Octet, AR2G sensor, 3R-H8 loaded as ligand at 5 ug/ml (10 mM acetate pH 5.0), hL1CAM as analyte 0 ~ 200 nM in 1X PBS + 0.09% Tween. The protocol: as §1
Assay [4] addresses T1, mouse L1CAM (mL1CAM) protein fused with …. As to the kind of experiment: Octet, AR2G sensor, 3R-H8 loaded as ligand at 5 ug/ml (10 mM acetate pH 6.0), mL1CAM as analyte 0 ~ 100 nM in 1X PBS + 0.09% Tween. The protocol: as §1
Assay [5] has as its target T2, human L1CAM protein (hL1CAM, Sino …). The assay is described as follows: Octet, AR2G sensor, 3R-H8 loaded as ligand at 5 ug/ml (10 mM acetate pH 5.0), hL1CAM as analyte 0 ~ 200 nM in 1X PBS + 0.09% Tween; column head kdis(1/s). The protocol:
as §1

The target in assay [6] is T1, mouse L1CAM (mL1CAM) protein fused with …. The assay is described as follows: Octet, AR2G sensor, 3R-H8 loaded as ligand at 5 ug/ml (10 mM acetate pH 6.0), mL1CAM as analyte 0 ~ 100 nM in 1X PBS + 0.09% Tween; column head kdis(1/s). The protocol: as §1
Assay [7] has the same target. The assay is described as follows: monoclonal phage ELISA, plate coated with mL1CAM-Fc (3R clones), HRP-anti-M13, absorbance at 450 nm, cut-off 0.4. The protocol: Specifically, the antigen mL1CAM protein was added to 96-well plates, incubated at 4° C. overnight, and then blocked with 2% MPBS at 37° C. for 2 hours. Since the antigen mL1CAM protein was fused with the Fc domain, Fc as an Fc control was also added to the 96-well plates, incubated at 4° C. overnight, and blocked with 2% MPBS at 37° C. for 2 hours. Then, the phages (up to 10¹¹ cfu) were added to the 96-well plates. After incubation at room temperature for 90 minutes, HRP-anti-M13 (Sino Biological, Cat No. 11973-MM05) was diluted in PBS to 1:5000, and added to 96-well plates. After incubation at room temperature for 1 hour, TMB substrate (Sigma, Cat No. T0440) and 2N H2504 (Merck, Cat No.100731) were sequentially added, and the absorbance (OD) at 450 nm was measured. As a result, when the absorbance (A450 nm) cut-off for the antigen mL1CAM was set to at least 0.4 for selection, one clone in the 2nd round, a total of 26 clones in the 3rd round, and a total of 9 clones in the 4th round specifically bound (positive) to the antigen mL1CAM in ELISA (FIG. 3).
Background: An ELISA detects its analyte on a solid surface through an enzyme-linked reagent.

T1 sequence (P11627 20-1123 limits assumed): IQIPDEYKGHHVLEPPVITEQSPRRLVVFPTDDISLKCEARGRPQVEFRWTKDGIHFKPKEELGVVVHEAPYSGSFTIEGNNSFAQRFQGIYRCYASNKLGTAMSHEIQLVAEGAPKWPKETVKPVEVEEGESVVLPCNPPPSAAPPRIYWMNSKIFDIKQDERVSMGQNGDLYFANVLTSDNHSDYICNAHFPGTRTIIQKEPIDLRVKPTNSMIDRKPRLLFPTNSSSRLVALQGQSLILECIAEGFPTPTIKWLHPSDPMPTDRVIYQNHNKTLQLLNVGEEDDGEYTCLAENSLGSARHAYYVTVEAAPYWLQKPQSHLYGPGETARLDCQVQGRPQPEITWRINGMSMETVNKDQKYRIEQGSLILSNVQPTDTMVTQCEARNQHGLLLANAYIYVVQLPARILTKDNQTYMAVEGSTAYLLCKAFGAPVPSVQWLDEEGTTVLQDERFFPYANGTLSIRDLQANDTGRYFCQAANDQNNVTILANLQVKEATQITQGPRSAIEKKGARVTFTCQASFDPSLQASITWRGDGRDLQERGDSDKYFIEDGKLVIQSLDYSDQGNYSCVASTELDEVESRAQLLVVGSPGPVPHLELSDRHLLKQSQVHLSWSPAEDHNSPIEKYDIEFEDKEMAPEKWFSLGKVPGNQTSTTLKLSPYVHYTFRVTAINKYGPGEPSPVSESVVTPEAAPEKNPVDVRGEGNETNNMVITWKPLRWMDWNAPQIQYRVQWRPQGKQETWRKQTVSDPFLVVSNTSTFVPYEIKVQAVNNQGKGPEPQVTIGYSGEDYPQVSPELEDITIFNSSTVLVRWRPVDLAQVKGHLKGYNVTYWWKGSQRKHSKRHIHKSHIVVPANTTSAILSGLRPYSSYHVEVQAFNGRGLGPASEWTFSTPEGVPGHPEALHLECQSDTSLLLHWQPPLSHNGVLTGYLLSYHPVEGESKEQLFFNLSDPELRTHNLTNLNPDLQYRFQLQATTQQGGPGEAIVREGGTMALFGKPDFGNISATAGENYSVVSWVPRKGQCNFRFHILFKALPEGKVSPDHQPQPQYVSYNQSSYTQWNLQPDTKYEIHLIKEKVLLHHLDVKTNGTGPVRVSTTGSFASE

B1: whole IgG1 antibody converted from clone 3R-H8 (antibody, V domains shown)
VH: EVQLVESGGGLVQPGGSLRLSCAASGFTFSDYAMNWVRQAPGKGLEWVSAISSTGSTIYYADSVKGRFTISRDNSKNTLYLQMNSLRAEDTAVYYCAKQSTYFYSYFDVWGQGTLVTVSS
VL: not shown
notes: also called 3R-H8 whole IgG1; mL1CAM-3R-H8 IgG1
As usually defined, the Kd is the constant that tells how readily two partners part at equilibrium. A high value points to weaker binding. As usually defined, the kon is the rate constant with which the complex forms. A word on the koff: it is a measure of how fast the partners let go of each other. As for B1, the Kd in assay [1] stood at 20.5 nM; in assay [2], 4.14 nM. The association rate constant (kon) in assay [3] turned out to be 57700 M⁻¹ s⁻¹; in assay [4] it was 462000 M⁻¹ s⁻¹. The dissociation rate constant (koff) came to 0.000239 s⁻¹ in assay [5] and 0.00945 s⁻¹ in assay [6].

B2: E7 (scFv)
scFv (VH-linker-VL): EVQLVESGGGLVQPGGSLRLSCAASGFTFSSYAMHWVRQAPGKGLEWVSAISSSGSSKYYADSVKGRFTISRDNSKNTLYLQINSLRAEDTAVYYCAKDESYGWLYAFDLWGQGTLVTVSSGGGGSGGGGSGGGGSDIQMTQSPSSLSASVGDRVTITCRASQSISNYLNWYQQKPGKAPKLLIYAASRLQSGVPSRFSGSGSGTDFTLTISSLQPEDFATYYCQQSYSFPLTFGQGTKVEIK
notes: also called mL1CAM-3R-E7; ID 4 group
With B2, the binding result in assay [7] is “binds”.

B3: G2 (scFv)
scFv (VH-linker-VL): EVQLVESGGGLVQPGGSLRLSCAASGFTFSSYAMHWVRQAPGKGLEWVSAISSSGSSKYYADSVKGRFTISRDNSKNTLYLQINSLRAEDTAVYYCAKDESYGWLYAFDLWGQGTLVTVSSGGGGSGGGGSGGGGSDIQMTQSPSSLSASVGDRVTITCRASQSISNYLNWYQQKPGKAPKLLIYAASRLQSGVPSRFSGSGSGTDFTLTISSLQPEDFATYYCQQSYSFPLTFGQGTKVEIK
notes: also called mL1CAM-3R-G2; ID 4 group
On to B3, for which the binding result in assay [7] is recorded as “binds”.
